Laboratory results as given in publication PMC11122685, “An interaction network in the polymerase active site is a prerequisite for Watson-Crick base pairing in Pol γ”.

Target: Pol gamma A R853A exo-;Pol gamma B deltaI4 (human;human?, UniProt P54098;Q9UHN1 1-1239;1-485, D198A;E200A;R853A|del136-182)
Experiment: X-ray crystal structure (3.4 A); dCTP (2 mM), 10 mM CaCl2; ternary complex, dCTP not paired with template dG; Crystal: 63.5 uM protein, 114.3 uM DNA, 10 mM CaCl2, 2 mM dCTP; well 100 mM MES pH 6.0, 150 mM NaCl, 10 mM CaCl2, 50 mM BME, 3% PEG-8000, 1-8% sucrose, 2% Jeffa
Details: protein: recombinant;recombinant; (Ni-NTA purified); copies: 1;2; 5' overhang 4 nt (template strand), recessed primer 3' end

Pol gamma A R853A exo-;Pol gamma B deltaI4, sequence (P54098 whole entry D198A/E200A/R853A, chain 1 of 2): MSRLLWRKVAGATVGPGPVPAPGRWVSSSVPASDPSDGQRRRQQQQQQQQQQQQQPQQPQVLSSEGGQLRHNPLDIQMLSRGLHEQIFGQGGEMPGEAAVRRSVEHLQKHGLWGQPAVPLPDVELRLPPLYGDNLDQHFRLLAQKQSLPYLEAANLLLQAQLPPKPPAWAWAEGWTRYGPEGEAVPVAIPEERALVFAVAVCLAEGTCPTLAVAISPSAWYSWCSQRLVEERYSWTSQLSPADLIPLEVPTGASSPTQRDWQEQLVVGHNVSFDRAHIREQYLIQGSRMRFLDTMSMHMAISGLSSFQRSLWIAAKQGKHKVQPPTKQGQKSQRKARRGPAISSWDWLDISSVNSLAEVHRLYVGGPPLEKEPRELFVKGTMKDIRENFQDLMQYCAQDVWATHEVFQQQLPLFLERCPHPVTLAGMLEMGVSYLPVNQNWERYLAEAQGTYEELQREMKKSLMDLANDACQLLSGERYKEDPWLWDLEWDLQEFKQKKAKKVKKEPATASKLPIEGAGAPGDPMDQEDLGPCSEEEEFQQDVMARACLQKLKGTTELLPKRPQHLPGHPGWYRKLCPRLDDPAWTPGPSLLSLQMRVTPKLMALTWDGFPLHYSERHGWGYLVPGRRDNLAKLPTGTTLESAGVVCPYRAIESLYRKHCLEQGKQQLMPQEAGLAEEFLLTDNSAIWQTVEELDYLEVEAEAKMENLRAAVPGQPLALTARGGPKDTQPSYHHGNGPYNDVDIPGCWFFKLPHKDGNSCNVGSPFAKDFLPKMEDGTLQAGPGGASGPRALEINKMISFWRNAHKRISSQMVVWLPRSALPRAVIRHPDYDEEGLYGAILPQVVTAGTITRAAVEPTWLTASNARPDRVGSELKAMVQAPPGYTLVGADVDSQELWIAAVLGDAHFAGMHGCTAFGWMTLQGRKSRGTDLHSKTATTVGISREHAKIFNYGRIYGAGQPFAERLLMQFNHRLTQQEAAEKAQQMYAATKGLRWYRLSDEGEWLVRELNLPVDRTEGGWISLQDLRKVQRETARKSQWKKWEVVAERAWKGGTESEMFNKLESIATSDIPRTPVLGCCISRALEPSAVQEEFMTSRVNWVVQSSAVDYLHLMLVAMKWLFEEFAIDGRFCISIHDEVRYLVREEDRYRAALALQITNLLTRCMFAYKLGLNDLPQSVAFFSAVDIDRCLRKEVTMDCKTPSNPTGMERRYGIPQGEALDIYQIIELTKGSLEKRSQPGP
Pol gamma A R853A exo-;Pol gamma B deltaI4, sequence (Q9UHN1 other isoform, or with tags, fused parts or gaps D198A;E200A;R853A|del136-182 | R853A R853A, chain 2 of 2): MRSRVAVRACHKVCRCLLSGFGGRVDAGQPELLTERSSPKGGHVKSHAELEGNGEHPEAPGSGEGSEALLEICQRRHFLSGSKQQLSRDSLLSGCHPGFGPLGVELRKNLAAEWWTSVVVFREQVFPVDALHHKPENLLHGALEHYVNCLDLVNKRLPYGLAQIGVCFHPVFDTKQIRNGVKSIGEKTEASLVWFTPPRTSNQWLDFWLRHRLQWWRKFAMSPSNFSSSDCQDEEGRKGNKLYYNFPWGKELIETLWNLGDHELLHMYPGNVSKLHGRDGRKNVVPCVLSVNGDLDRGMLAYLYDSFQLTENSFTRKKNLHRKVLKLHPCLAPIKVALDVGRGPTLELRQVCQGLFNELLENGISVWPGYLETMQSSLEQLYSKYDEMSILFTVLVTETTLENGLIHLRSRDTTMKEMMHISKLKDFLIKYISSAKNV

B1: 24-nt/28-nt primer/template, ddC-terminated primer (crystal) (dsDNA)
DNA 1: CGAAAACGACGGCCAGTGCCATAC
DNA 2: CGAGGTATGGCACTGGCCGTCGTTTTCG
modifications: 2',3'-dideoxyC at primer 3' end (position 24 of strand 1)
  binding result: binds
